Measurements taken from publication PMC10397319, “The phosphatidylinositol (4,5)-bisphosphate-Rab35 axis regulates migrasome formation” (Cell Research, 2023).
Ends that are not written are not given here.

Target: T1, His-GFP-Rab35-Q67L (rat, UniProt Q5U316 1-201, Q67L)
T1 construct: Rab35, cloned from rat cDNA, constitutively active mutant Q67L; the methods describe only the WT purification; also called constitutively active Rab35-Q67L; active Rab35; source: cloned into pET21b, purified; not shown: GFP, N-terminal, kept
Experiment: dual-color fluorescence cross-correlation spectroscopy (dcFCCS); both free in solution; 100 nM GFP-Rab35 mixed with 500 nM Cy5-ITGα5-cyto; 20 mM HEPES pH 7.5, 100 mM NaCl, 2 mM MgCl2, 0.1% BSA; 25 °C; 5 min recording, three repeats
Conditions: both partners purified

T1 sequence (Q5U316 whole entry Q67L): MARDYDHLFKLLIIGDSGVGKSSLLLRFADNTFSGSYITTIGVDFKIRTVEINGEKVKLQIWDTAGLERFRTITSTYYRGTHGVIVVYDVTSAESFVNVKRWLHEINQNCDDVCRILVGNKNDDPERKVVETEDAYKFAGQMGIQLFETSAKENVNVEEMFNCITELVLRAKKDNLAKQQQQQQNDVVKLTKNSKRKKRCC

binding result: binds
B1: Cy5-ITGα5-cyto-WT (peptide)
peptide: YKLGFFKRSLPYGTAMEKAQLKPPATSDA
modifications: also: Sulfo-Cy5 label, site not given here
notes: also called cytosolic domain of integrin α5; WT peptide; source: synthetic peptide (Synpeptide Co., Ltd.), labelled with Sulfo-Cy5 NHS ester
